Test results reported in patent US20200055939A1 (Genentech, published 2020).

T1: MICA*008 on MEL-JUSO cells (human, UniProt Q29983 24-317)
T1 chain: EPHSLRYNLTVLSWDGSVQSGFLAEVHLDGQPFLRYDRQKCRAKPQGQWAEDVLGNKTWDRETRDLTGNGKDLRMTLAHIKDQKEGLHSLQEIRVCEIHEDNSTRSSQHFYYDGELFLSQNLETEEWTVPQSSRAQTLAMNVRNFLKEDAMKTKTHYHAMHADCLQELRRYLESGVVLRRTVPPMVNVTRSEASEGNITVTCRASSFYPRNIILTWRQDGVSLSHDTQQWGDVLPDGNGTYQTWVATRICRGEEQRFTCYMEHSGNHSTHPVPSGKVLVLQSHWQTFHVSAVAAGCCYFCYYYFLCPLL

T2: huMICA*002 alpha 3-his (human)
T2 construct: whole construct entry: GS, alpha 3 domain, GNS, His8; also called MICA002.His; MICA*002 alpha3 construct
T2 chain: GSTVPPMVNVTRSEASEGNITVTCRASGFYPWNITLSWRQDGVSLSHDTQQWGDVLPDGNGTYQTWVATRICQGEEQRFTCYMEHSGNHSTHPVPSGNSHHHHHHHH

T3: huMICA*004 alpha 3-his (human)
T3 construct: whole construct entry: GS, alpha 3 domain, GNS, His8; also called MICA004.His; MICA*004 alpha3 construct
T3 chain: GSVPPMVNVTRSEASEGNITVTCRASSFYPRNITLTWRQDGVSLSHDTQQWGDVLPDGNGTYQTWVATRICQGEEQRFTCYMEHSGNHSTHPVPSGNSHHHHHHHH

T4: huMICA*008 alpha 3-his (human)
T4 construct: whole construct entry: GS, alpha 3 domain (Thr204-Ser297), GNS, His8; also the construct of the FPOP experiment; also called MICA008.His; MICA*008 alpha3 construct
T4 chain: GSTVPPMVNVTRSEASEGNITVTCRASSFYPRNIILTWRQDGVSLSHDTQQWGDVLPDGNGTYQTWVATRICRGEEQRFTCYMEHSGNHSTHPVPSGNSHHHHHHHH

T5: huMICB*005 alpha 3-his (human)
T5 construct: whole construct entry: GS, alpha 3 domain, GNS, His8; also called MICB005.His; MICB*005 alpha3 construct
T5 chain: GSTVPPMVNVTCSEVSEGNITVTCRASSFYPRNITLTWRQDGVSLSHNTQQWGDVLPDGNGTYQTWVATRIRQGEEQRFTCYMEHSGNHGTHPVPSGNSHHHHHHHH


Tests used:
[1] = biological target: T1, MICA*008 on MEL-JUSO cells; assay: cell-based or functional assay
[2] = biological target: MICA*004 on HCC1534 cells (human, UniProt Q29983 24-383); assay: cell-based or functional assay
[3] = biological target: MICB*005 on HCC1534 cells (human); assay: cell-based or functional assay
[4] = biological target: T2, huMICA*002 alpha 3-his; assay: SPR, Biacore 8K, antibody on Protein A chip
Description: (§1) A Protein A sensorchip (GE Healthcare) was used following manufacturer provided protocols to capture humanized anti-MICA/B antibodies. The MICA/B alleles were passed over. Antibody binding was measured to human MICA 002, 004, 008 and MICB 005 alpha 3 domains (His tagged, in-house). Sensograms for binding of MICA/B were recorded using an injection time of 2 minutes with a flow rate of 30 ml/min, at a temperature of 25° C., and with a running buffer of 10 mM HEPES, pH 7.4, 150 mM NaCl, 3mM EDTA, and 0.005% Tween 20. After injection, disassociation of the alpha 3 domain from the antibody was monitored for 10 minutes in running buffer. The surface was regenerated between binding cycles with a 60 ul injection of 10 mM Glycine HCl pH 1.5. […] The data was analyzed using a 1:1 binding model. Sensograms of MICA alleles binding to captured anti-MICA antibody were used to calculate the dissociation constant (Kd).

[5] = biological target: T3, huMICA*004 alpha 3-his; assay: SPR, Biacore 8K, antibody on Protein A chip
Description: as §1

[6] = biological target: T4, huMICA*008 alpha 3-his; assay: SPR, Biacore 8K, antibody on Protein A chip
Description: as §1

[7] = biological target: T5, huMICB*005 alpha 3-his; assay: SPR, Biacore 8K, antibody on Protein A chip
Description: as §1
For % Inhibition in this document: test concentration or dose not given here.

Row | Binder | % Inhibition [1] [%] | % Inhibition [2] [%] | % Inhibition [3] [%] | Kd [4] [nM] | Kd [5] [nM] | Kd [6] [nM] | Kd [7] [nM]
1 | 15F11v2 (antibody, IgG1, V domains shown, humanized variant of 15F11) VH: EIQLVQSGAEVKKPGASVKVSCKPSGYAFTSNNIYWVRQAPGQGLEWIGYIDPYIGRIIYNQQFKDRATLTVDKSTSTAYLELSSLRSEDTAVYYCSRSGERSNFDYWGQGTLVTVSS VL: EIVLTQSPATLSLSPGERATLSCSASSSISSNYLHWYQQKPGQAPRLLIYRTSNLASGIPARFSGSGSGTDFTLTISSLEPEDFAVYYCQQGGSLPLTFGQGTKVEIK | 62 | 43 | 35 | 5.05 | 2.74 | 3.17 | 6.71
2 | 13A9v2 (antibody, IgG1, V domains shown, humanized variant of 13A9) VH: EVQLVQSGAEVKKPGASVKVSCKASGYAFTNYLIEWVRQAPGQGLEWIGAINPGSGATNYNEKFKDRATLTADKSTNTAYLELSSLRSEDTAVYFCARFLGNYFDNWGQGTLVTVSS VL: DIQMTQSPSSLSASVGDRVTITCRASGNIHSYLAWYQQKPGKAPKLLIYYAETLADGVPSRFSGSGSGTDFTLTISSLQPEDFATYYCQQFWTTPYTFGQGTKVEIK | 12 | 10 | 60 | 4.44 | 5.32 | 2.56 | 3.15
3 | 13A9v3 (antibody, IgG1, V domains shown, humanized variant of 13A9) VH: EVQLVQSGAEVKKPGASVKVSCKASGYAFTNYLIEWVRQAPGQGLEWIGAINPGSGATNYNEKFKDRVTITADTSTSTAYLELSSLRSEDTAVYYCARFLGNYFDNWGQGTLVTVSS VL: DIQMTQSPSSLSASVGDRVTITCRASGNIHSYLAWYQQKPGKSPKLLVYYAETLADGVPSRFSGSGSGTDYTLTISSLQPEDFATYFCQQFWTTPYTFGQGTKVEIK | 2 | 25 | 42 | 4.97 | 4.79 | 3.85 | 3.15
4 | 13A9v4 (antibody, IgG1, V domains shown, humanized variant of 13A9) VH: EVQLVQSGAEVKKPGASVKVSCKASGYAFTNYLIEWVRQAPGQGLEWIGAINPGSGATNYNEKFKDRATLTADKSTNTAYLELSSLRSEDTAVYFCARFLGNYFDNWGQGTLVTVSS VL: DIQMTQSPSSLSASVGDRVTITCRASGNIHSYLAWYQQKPGKSPKLLVYYAETLADGVPSRFSGSGSGTDYTLTISSLQPEDFATYFCQQFWTTPYTFGQGTKVEIK | -31 | -29 | 63 | 3.93 | 3.69 | 2.72 | 2.4
5 | 13A9v6 (antibody, IgG1, V domains shown, humanized variant of 13A9) VH: EVQLVQSGAEVKKPGSSVKVSCKASGYAFTNYLIEWVRQAPGQGLEWIGAINPGSGATNYNEKFKDRATLTADKSTNTAYMELSSLRSEDTAVYFCARFLGNYFDNWGQGTLVTVSS VL: DIQMTQSPSSLSASVGDRVTITCRASGNIHSYLAWYQQKPGKSPKLLVYYAETLADGVPSRFSGSGSGTDYTLTISSLQPEDFATYFCQQFWTTPYTFGQGTKVEIK | 8 | 16 | 6 | 3.94 | 3.77 | 2.8 | 2.45
6 | 13A9v1 (antibody, IgG1, V domains shown, humanized variant of 13A9) VH: EVQLVQSGAEVKKPGASVKVSCKASGYAFTNYLIEWVRQAPGQGLEWIGAINPGSGATNYNEKFKDRVTITADTSTSTAYLELSSLRSEDTAVYYCARFLGNYFDNWGQGTLVTVSS VL: DIQMTQSPSSLSASVGDRVTITCRASGNIHSYLAWYQQKPGKAPKLLIYYAETLADGVPSRFSGSGSGTDFTLTISSLQPEDFATYYCQQFWTTPYTFGQGTKVEIK | 10 | 12 | 43 | 5.87 | 8.37 | 5.6 | 5.12
7 | 13A9v5 (antibody, IgG1, V domains shown, humanized variant of 13A9) VH: EVQLVQSGAEVKKPGSSVKVSCKASGYAFTNYLIEWVRQAPGQGLEWIGAINPGSGATNYNEKFKDRATLTADKSTNTAYMELSSLRSEDTAVYFCARFLGNYFDNWGQGTLVTVSS VL: DIQMTQSPSSLSASVGDRVTITCRASGNIHSYLAWYQQKPGKAPKLLIYYAETLADGVPSRFSGSGSGTDFTLTISSLQPEDFATYYCQQFWTTPYTFGQGTKVEIK | 4 | 9 | 63 | 4.27 | 5.52 | 3.68 | 3.17
8 | 1D5v24 (antibody, IgG1, V domains shown, humanized variant of 1D5) VH: EVQLVQSGAEVKKPGASVKVSCKASGYAFTSQNIYWVRQAPGQGLEWIGYIEPYNVVPMYNPKFKGRVTITVDKSTSTAYLELSSLRSEDTAVYYCARSGSSNFDYWGQGTLVTVSS VL: DIQLTQSPSSLSASVGDRVTITCSASSSISSHYLHWYQQKPGKSPKLLIYRTSNLASGVPSRFSGSGSGTDYTLTISSLQPEDFATYYCQQGSSLPLTFGQGTKVEIK | 65 | 50 | 43 | 1.21 | 0.9 | 1.41 | 1.62
9 | 1D5v29 (antibody, IgG1, V domains shown, humanized variant of 1D5) VH: EIQLVQSGAEVKKPGASVKVSCKASGYAFTSQNIYWVRQAPGQGLEWIGYIEPYNVVPVYNPKFKGRATLTVDKSTSTAYLELSSLRSEDTAVYYCARSGSSNFDYWGQGTLVTVSS VL: DIQLTQSPSSLSASVGDRVTITCSASSSISSHYLHWYQQKPGKSPKLLIYRTSNLASGVPSRFSGSGSGTDYTLTISSLQPEDFATYYCQQGSSLPLTFGQGTKVEIK | 57 | 40 | -8 | 2.01 | 1.58 | 1.65 | 3.86
10 | 1D5v25 (antibody, IgG1, V domains shown, humanized variant of 1D5) VH: EVQLVQSGAEVKKPGASVKVSCKASGYAFTSQNIYWVRQAPGQGLEWIGYIEPYNVVPMYNPKFKGRVTITVDTSTSTAYLELSSLRSEDTAVYYCARSGSSNFDYWGQGTLVTVSS VL: DIQLTQSPSSLSASVGDRVTITCSASSSISSHYLHWYQQKPGKSPKLLIYRTSNLASGVPSRFSGSGSGTDYTLTISSLQPEDFATYYCQQGSSLPLTFGQGTKVEIK | 62 | 46 | 28 | 1.22 | 0.96 | 0.93 | 1.84
11 | 1D5v27 (antibody, IgG1, V domains shown, humanized variant of 1D5) VH: EIQLVQSGAEVKKPGASVKVSCKASGYAFTSQNIYWVRQAPGQGLEWIGYIEPYNVVPAYNPKFKGRATLTVDKSTSTAYLELSSLRSEDTAVYYCARSGSSNFDYWGQGTLVTVSS VL: DIQLTQSPSSLSASVGDRVTITCSASSSISSHYLHWYQQKPGKSPKLLIYRTSNLASGVPSRFSGSGSGTDYTLTISSLQPEDFATYYCQQGSSLPLTFGQGTKVEIK | 69 | 53 | -8 | 1.85 | 1.52 | 1.44 | 3.31
12 | 1D5v26 (antibody, IgG1, V domains shown, humanized variant of 1D5) VH: EVQLVQSGAEVKKPGASVKVSCKASGYAFTSQNIYWVRQAPGQGLEWIGYIEPYNVVPMYNPKFKGRVTITRDKSTSTAYLELSSLRSEDTAVYYCARSGSSNFDYWGQGTLVTVSS VL: DIQLTQSPSSLSASVGDRVTITCSASSSISSHYLHWYQQKPGKSPKLLIYRTSNLASGVPSRFSGSGSGTDYTLTISSLQPEDFATYYCQQGSSLPLTFGQGTKVEIK | 50 | 37 | 42 | 3.9 | 3.17 | 3.12 | 7.15
13 | 1D5v28 (antibody, IgG1, V domains shown, humanized variant of 1D5) VH: EIQLVQSGAEVKKPGASVKVSCKASGYAFTSQNIYWVRQAPGQGLEWIGYIEPYNVVPLYNPKFKGRATLTVDKSTSTAYLELSSLRSEDTAVYYCARSGSSNFDYWGQGTLVTVSS VL: DIQLTQSPSSLSASVGDRVTITCSASSSISSHYLHWYQQKPGKSPKLLIYRTSNLASGVPSRFSGSGSGTDYTLTISSLQPEDFATYYCQQGSSLPLTFGQGTKVEIK | 0 | 3 | 36 | 1.19 | 0.87 | 0.84 | 1.49
